Test results from the Immune Epitope Database (IEDB).
pKd: −log10 of the molar value. One block for each sequence: values may come before it.

How the values were obtained:
Test in all cases: IEDB peptide-MHC binding, purified MHC/competitive/radioactivity; filed as Kd, often an IC50 or EC50 that approximates it; ≥ and ≤ were set here for values at or beyond the usual limits of such assays
[1] = target: HLA-A*31:01
[2] = target: HLA-A*33:01
[3] = target: HLA-A*68:01
[4] = target: HLA-A*11:01
[5] = target: HLA-A*03:01
[6] = target: HLA-A*02:02
[7] = target: HLA-A*02:06
[8] = target: HLA-A*02:03
[9] = source organism: Vaccinia virus WR
[10] = source organism: Mammarenavirus tacaribeense
[11] = source organism: Mammarenavirus juninense
[12] = source organism: SARS coronavirus Tor2
[13] = source organism: Lassa virus GA391
[14] = source organism: Mammarenavirus lassaense
[15] = source organism: Mammarenavirus choriomeningitidis
[16] = source organism: Dengue virus 3 Martinique/1243/1999

Sequence: VTFRERYSY
pKd [1, 9]: 7.09
pKd [2, 9]: ≤ 5.30
pKd [3, 9]: 6.97
pKd [4, 9]: 8.35
pKd [5, 9]: 7.25

Sequence: SVQLSNNKYV
pKd [6, 9]: 5.91
pKd [7, 9]: 5.05
pKd [8, 9]: 6.09

Sequence: NLDLFMSHVK
pKd [1, 9]: 5.11
pKd [2, 9]: 5.54
pKd [3, 9]: 6.07
pKd [4, 9]: 7.16
pKd [5, 9]: 7.71

Sequence: INISGYNLSL
pKd [6, 10]: 6.75
pKd [7, 10]: 4.94
pKd [8, 10]: 5.87

Sequence: TSEKYSKGYK
pKd [1, 9]: ≤ 4.15
pKd [2, 9]: ≤ 4.15
pKd [3, 9]: 6.03
pKd [4, 9]: 5.98
pKd [5, 9]: ≤ 4.60

Sequence: CAVIPFDDIV
pKd [6, 9]: 5.53
pKd [7, 9]: 6.74
pKd [8, 9]: 5.13

Sequence: TIDNIVTSLA
pKd [6, 9]: ≤ 4.15
pKd [7, 9]: ≤ 4.16
pKd [8, 9]: ≤ 4.15

Sequence: GLCNYGGILI
pKd [6, 9]: 6.82
pKd [7, 9]: 5.30
pKd [8, 9]: 5.49

Sequence: IMRVMANNV
pKd [6, 9]: 6.40
pKd [7, 9]: 5.60
pKd [8, 9]: 5.90

Sequence: YNFSLSAAV
pKd [6, 11]: ≤ 4.34
pKd [7, 11]: ≤ 4.11
pKd [8, 11]: ≤ 4.11

Sequence: RVLIFILLTA
pKd ([7]; source organism: Dengue virus 2 Peru/IQT2913/1996): 6.40

Sequence: SLCSCICTV
pKd [6, 12]: 8.40
pKd [7, 12]: 8.23
pKd [8, 12]: 8.38

Sequence: FTNSQIFNII
pKd [6, 9]: 6.84
pKd [7, 9]: 5.92
pKd [8, 9]: 6.34

Sequence: FMLIFNVKSK
pKd [1, 9]: 5.22
pKd [2, 9]: 4.71
pKd [3, 9]: 7.42
pKd [4, 9]: 5.46
pKd [5, 9]: 6.68

Sequence: SAFNDDGIYI
pKd [6, 9]: 7.45
pKd [7, 9]: 7.39
pKd [8, 9]: 7.17

Sequence: KTKISVEKI
pKd [6, 9]: 5.12
pKd [7, 9]: 4.97
pKd [8, 9]: 6.95

Sequence: NYSRYWYLNH
pKd [1, 13]: 5.10
pKd [2, 13]: 5.87
pKd [3, 13]: ≤ 4.15
pKd [4, 13]: ≤ 4.51
pKd [5, 13]: 4.79

Sequence: VCSFYADPK
pKd [1, 14]: ≤ 4.57
pKd [2, 14]: ≤ 4.11
pKd [3, 14]: 5.25
pKd [4, 14]: 5.50
pKd [5, 14]: 5.42

Sequence: ILSKIPYLR
pKd [1, 9]: 8.60
pKd [2, 9]: 7.01
pKd [3, 9]: 7.88
pKd [4, 9]: 7.51
pKd [5, 9]: 6.22

Sequence: VVFLHVTYV
pKd [6, 12]: 8.11
pKd [7, 12]: 8.41
pKd [8, 12]: 9.55

Sequence: VMCGGSLYV
pKd [6, 12]: 9.22
pKd [7, 12]: 8.17
pKd [8, 12]: 8.12

Sequence: IIRVTTELNI
pKd [6, 9]: 5.00
pKd [7, 9]: 4.86
pKd [8, 9]: 5.06

Sequence: SVTKSSSWK
pKd [1, 9]: 4.71
pKd [2, 9]: ≤ 4.11
pKd [3, 9]: 7.39
pKd [4, 9]: 8.60
pKd [5, 9]: 8.12

Sequence: AIDRQVSVK
pKd [1, 9]: 5.36
pKd [2, 9]: ≤ 4.11
pKd [3, 9]: 4.95
pKd [4, 9]: 7.38
pKd [5, 9]: 6.84

Sequence: SAFNKKHFDH
pKd [1, 15]: 4.90
pKd [2, 15]: ≤ 4.54
pKd [3, 15]: ≤ 4.44
pKd [4, 15]: 5.90
pKd [5, 15]: ≤ 4.65

Sequence: IAGIILLIL
pKd [6, 9]: 5.38
pKd [7, 9]: ≤ 4.11
pKd [8, 9]: ≤ 4.28

Sequence: PLTLLIKTL
pKd [6, 9]: 5.28
pKd [7, 9]: 5.09
pKd [8, 9]: 5.21

Sequence: MIKNLTQLFK
pKd [1, 9]: 8.37
pKd [2, 9]: 6.50
pKd [3, 9]: 8.79
pKd [4, 9]: 9.12
pKd [5, 9]: 9.08

Sequence: ALALLLLDR
pKd [1, 12]: 5.10
pKd [2, 12]: ≤ 4.29
pKd [3, 12]: ≤ 4.28
pKd [4, 12]: 5.12
pKd [5, 12]: 5.50

Sequence: GIITLYLGAV
pKd [7, 16]: 8.30
pKd [8, 16]: 8.30

Sequence: AQPGLLSYV
pKd ([8]; source organism: Mammarenavirus guanaritoense): 8.26

Sequence: SSAVVDNKLK
pKd [1, 9]: 5.82
pKd [2, 9]: 4.76
pKd [3, 9]: 8.92
pKd [4, 9]: 7.43
pKd [5, 9]: 6.54

Sequence: ASILSLETVK
pKd [1, 9]: 4.89
pKd [2, 9]: ≤ 4.15
pKd [3, 9]: 5.75
pKd [4, 9]: 7.60
pKd [5, 9]: 5.33

pKd ([7]; source organism: Homo sapiens): ≤ 4.55
Sequence: DLTAALRDV

Sequence: ELAELLEMK
pKd [1, 9]: 4.80
pKd [2, 9]: 5.92
pKd [3, 9]: 7.88
pKd [4, 9]: 5.90
pKd [5, 9]: 5.42
